From patent US20230374116A1 (ROSALIND FRANKLIN INSTITUTE, published 2023)

B1: A8 trimer (bispecific antibody)
chain: QVQLVESGGGLVQAGGSLRLSCAASGGTFSTAAMGWFRQAPGEERECVASIGWRGVRTWYADSVKGRFTISRDNPQNTVYLQMNNLKSGDTAVYYCAASVGNYGLPWAHFEYDFWGQGIQVTVSSGSGSGSQVQLVESGGGLVQAGGSLRLSCAASGGTFSTAAMGWFRQAPGEERECVASIGWRGVRTWYADSVKGRFTISRDNPQNTVYLQMNNLKSGDTAVYYCAASVGNYGLPWAHFEYDFWGQGIQVTVSSGSGSGSQVQLVESGGGLVQAGGSLRLSCAASGGTFSTAAMGWFRQAPGEERECVASIGWRGVRTWYADSVKGRFTISRDNPQNTVYLQMNNLKSGDTAVYYCAASVGNYGLPWAHFEYDFWGQGTQVTVSSKHHHHHH
B2: H3 trimer (VHH)
chain: QVQLVESGGGLVKTGGSLRLSCAASGRTFSTYSMGWFRQAPGKEREFVAGMRWTGSSTFYSDSVKGRFTVSRNNAKDTVYLHMNSLKPEDTAVYYCAITTIVRAYYTEYTEADFGSWGQGTQVTVSSGAVLAPQVQLVESGGGLVKTGGSLRLSCAASGRTFSTYSMGWFRQAPGKEREFVAGMRWTGSSTFYSDSVKGRFTVSRNNAKDTVYLHMNSLKPEDTAVYYCAITTIVRAYYTEYTEADFGSWGQGTQVTVSSGSGSGSQVQLVESGGGLVKTGGSLRLSCAASGRTFSTYSMGWFRQAPGKEREFVAGMRWTGSSTFYSDSVKGRFTVSRNNAKDTVYLHMNSLKPEDTAVYYCAITTIVRAYYTEYTEADFGSWGQGTQVTVSS
B3: C1 trimer (VHH)
chain: QVQLVESGGGLVQPGGSLRLSCAASGFTNDFYSIAWFRQAPGKEREGVSWLSVSDNTPTYVDSVKDRFTISRHNANNTVYLQMNMLKPEDTAIYYCAAGRFAGRDTWPSSYDYWGQGTQVTVSSGSGSGSQVQLVESGGGLVQPGGSLRLSCAASGFTNDFYSIAWFRQAPGKEREGVSWLSVSDNTPTYVDSVKDRFTISRHNANNTVYLQMNMLKPEDTAIYYCAAGRFAGRDTWPSSYDYWGQGTQVTVSSGSGSGSQVQLVESGGGLVQPGGSLRLSCAASGFTNDFYSIAWFRQAPGKEREGVSWLSVSDNTPTYVDSVKDRFTISRHNANNTVYLQMNMLKPEDTAIYYCAAGRFAGRDTWPSSYDYWGQGTQVTVSS
B4: C5 trimer (VHH)
chain: QVQLVESGGGSVQAGGSLTLSCVASGVTLGRHAIGWFRQAPGKERERVSCIRTFDGITSYVESTKGRFTISSNNAMNTVYLQMNSLKPEDTAVYFCALGVTAACSDNPYFWGQGTQVTVSSGSGSGSQVQLVESGGGSVQAGGSLTLSCVASGVTLGRHAIGWFRQAPGKERERVSCIRTFDGITSYVESTKGRFTISSNNAMNTVYLQMNSLKPEDTAVYFCALGVTAACSDNPYFWGQGTQVTVSSGSGSGSQVQLVESGGGSVQAGGSLTLSCVASGVTLGRHAIGWFRQAPGKERERVSCIRTFDGITSYVESTKGRFTISSNNAMNTVYLQMNSLKPEDTAVYFCALGVTAACSDNPYFWGQGTQVTVSS
notes: also called trimeric C5 nanobody; C5-6GS-C5-6GS-C5

How the values were obtained:
Test in all cases: cell-based or functional assay
[1] = biological target: Spike protein on live SARS-CoV-2 Delta strain (SARS-CoV-2 Delta (B.1.617.2), UniProt P0DTC2 14-1273)
[2] = biological target: Spike protein on live SARS-CoV-2 Beta strain (SARS-CoV-2 Beta (B.1.351), UniProt P0DTC2 14-1273)
[3] = biological target: Spike protein on live SARS-CoV-2 Alpha strain (SARS-CoV-2 Alpha (B.1.1.7), UniProt P0DTC2 14-1273)

Binder | ND 50 MN assay, live virus [1] [nM] | ND 50 MN assay, live virus [2] [nM] | ND 50 MN assay, live virus [3] [nM]
B1 | 0.1 | 0.2 | 0.1
B2 | 0.3 |  | 0.6
B3 | 3.1 | 4.5 | 8.2
B4 | 0.02 |  | 0.25
